Assay results as given in doi:10.1101/2024.11.15.623645 (bioRxiv, 2024).

What was measured:
Experiment in all cases: SPR
[1] = target: 2G12 IgG BCR complex (membrane IgG with Igα/Igβ) (human | human (endogenous in Ramos)) (UniProt P11912)
[2] = target: 2G12 IgM BCR complex (membrane IgM with Igα/Igβ) (human | human (endogenous in Ramos)) (UniProt P11912)
[3] = target: HIV-1 Env gp140 trimer CH505TF v4.1 (non-biotinylated) (HIV-1 clade C, CH505 transmitted/founder, UniProt M4M3Q1, stabilised)

Molecule | kon [1] | kon [2] | binding result [3]
HIV-1 Env gp140 trimer CH848 (non-biotinylated) | > 100000 M⁻¹ s⁻¹ | > 100000 M⁻¹ s⁻¹ | 
HIV-1 Env gp140 trimer JRFL (non-biotinylated) | > 100000 M⁻¹ s⁻¹ | > 100000 M⁻¹ s⁻¹ | 
HIV-1 Env gp140 trimer CH505TF v4.1 (non-biotinylated) | > 100000 M⁻¹ s⁻¹ | > 100000 M⁻¹ s⁻¹ | 
HIV-1 Env gp140 trimer CAP256 (non-biotinylated) | > 100000 M⁻¹ s⁻¹ | > 100000 M⁻¹ s⁻¹ | 
HIV-1 Env gp140 trimer BG505 GT1.2 (non-biotinylated) | > 100000 M⁻¹ s⁻¹ | > 100000 M⁻¹ s⁻¹ | 
2G12 soluble IgG mAb (antibody, V domains shown) VH: EVQLVESGGGLVKAGGSLILSCGVSNFRISAHTMNWVRRVPGGGLEWVASISTSSTYRDYADAVKGRFTVSRDDLEDFVYLQMHKMRVEDTAIYYCARKGSDRLSDNDPFDAWGPGTVVTVSP VL: DVVMTQSPSTLSASVGDTITITCRASQSIETWLAWYQQKPGKAPKLLIYKASTLKTGVPSRFSGSGSGTEFTLTISGLQFDDFATYHCQHYAGYSATFGQGTRVEIK |  |  | binds
